# Data reported in patent publication US20260209363A1 (Chugai, published 2026).
# B1: ABD094(H/L)-H54//IC17 (bispecific antibody, human IgG1, kappa)
# heavy 1: LAEAKEAANAELDSYGVSDFYKRLIDKAKTVEGVEALKDAILAALPQVQLQESGPGLVKPSETLSLTCAVSGYSISDDQAWSWVRQPPGEGLEWIGYISYSGITNYNPSLKGRVTISRDTSKNQFSLKLSSVTAADTAAYYCARSLARTTAMDYWGEGTLVTVSSASTKGPSVFPLAPSSKSTSGGTAALGCLVEDYFPEPVTVSWNSGALTSGVHTFPAVLQSSGLYSLSSVVTVPSSSLGTQTYICNVNHKPSNTKVDERVEPKSCDKTHTCPPCPAPELRRGPSVFLFPPKPKDTLMISRTPEVTCVVVDVSHEDPEVKFNWYVDGVEVHNAKTKPREEQYNSTYRVVSVLTVLHQDWLNGKEYKCKVSNKALPAPIEKTISKAKGQPREPQVCTLPPSREEMTKNQVSLSCAVKGFYPSDIAVEWESNGQPENNYKTTPPVLDSDGSFFLVSKLTVDKSRWQQGNVFSCSVMHEALHNHYTQKSLSLSP
# light 1: LAEAKEAANAELDSYGVSDFYKRLIDKAKTVEGVEALKDAILAALPDIQMTQSPSSLSASVGDSVTITCQASQDISSYLNWYQQKPGKAPELLIYYGSELHSGVPSRFSGSGSGTDFTFTISSLEAEDAATYYCQQGNSLPYTFGQGTKVEIERTVAAPSVFIFPPSDRKLKSGTASVVCLLNNFYPREAKVQWKVDNALQSGNSQESVTEQDSKDSTYSLSSTLTLSKADYEKHKVYACEVTHQGLSSPVTKSFNRGEC
# heavy 2: not shown
# light 2: QVQLQQSGPQLVRPGASVKISCKASGYSFTSYWMHWVNQRPGQGLEWIGMIDPSYSETRLNQKFKDKATLTVDKSSSTAYMQLSSPTSEDSAVYYCALYGNYFDYWGQGTTLTVSSASVAAPSVFIFPPSDEQLKSGTASVVCLLNNFYPREAKVQWKVDNALQSGNSQESVTEQDSKDSTYSLSSTLTLSKADYEKHKVYACEVTHQGLSSPVTKSFNRGEC
# notes: also called anti-IL6R albumin switch molecule
# B2: ABP(H/L).N13-H54//IC17 (bispecific antibody, human IgG1, kappa)
# heavy 1: QRLMEDICLPRWGCLWEDDFGGGSQVQLQESGPGLVKPSETLSLTCAVSGYSISDDQAWSWVRQPPGEGLEWIGYISYSGITNYNPSLKGRVTISRDTSKNQFSLKLSSVTAADTAAYYCARSLARTTAMDYWGEGTLVTVSSASTKGPSVFPLAPSSKSTSGGTAALGCLVEDYFPEPVTVSWNSGALTSGVHTFPAVLQSSGLYSLSSVVTVPSSSLGTQTYICNVNHKPSNTKVDERVEPKSCDKTHTCPPCPAPELRRGPSVFLFPPKPKDTLMISRTPEVTCVVVDVSHEDPEVKFNWYVDGVEVHNAKTKPREEQYNSTYRVVSVLTVLHQDWLNGKEYKCKVSNKALPAPIEKTISKAKGQPREPQVCTLPPSREEMTKNQVSLSCAVKGFYPSDIAVEWESNGQPENNYKTTPPVLDSDGSFFLVSKLTVDKSRWQQGNVFSCSVMHEALHNHYTQKSLSLSP
# light 1: QRLMEDICLPRWGCLWEDDFGGGSDIQMTQSPSSLSASVGDSVTITCQASQDISSYLNWYQQKPGKAPELLIYYGSELHSGVPSRFSGSGSGTDFTFTISSLEAEDAATYYCQQGNSLPYTFGQGTKVEIERTVAAPSVFIFPPSDRKLKSGTASVVCLLNNFYPREAKVQWKVDNALQSGNSQESVTEQDSKDSTYSLSSTLTLSKADYEKHKVYACEVTHQGLSSPVTKSFNRGEC
# heavy 2: not shown
# light 2: B1 light 2
# notes: also called ABP(H/L)-H54//IC17
# What was measured:
# [1] = target: T1, rat albumin (rat, UniProt P02770 25-608); test: inferred from reduced antigen complex in rat plasma (Gyrolab xP)
# T1 construct: also called albumin in SD rat plasma
# T1 sequence (P02770 25-608 limits assumed): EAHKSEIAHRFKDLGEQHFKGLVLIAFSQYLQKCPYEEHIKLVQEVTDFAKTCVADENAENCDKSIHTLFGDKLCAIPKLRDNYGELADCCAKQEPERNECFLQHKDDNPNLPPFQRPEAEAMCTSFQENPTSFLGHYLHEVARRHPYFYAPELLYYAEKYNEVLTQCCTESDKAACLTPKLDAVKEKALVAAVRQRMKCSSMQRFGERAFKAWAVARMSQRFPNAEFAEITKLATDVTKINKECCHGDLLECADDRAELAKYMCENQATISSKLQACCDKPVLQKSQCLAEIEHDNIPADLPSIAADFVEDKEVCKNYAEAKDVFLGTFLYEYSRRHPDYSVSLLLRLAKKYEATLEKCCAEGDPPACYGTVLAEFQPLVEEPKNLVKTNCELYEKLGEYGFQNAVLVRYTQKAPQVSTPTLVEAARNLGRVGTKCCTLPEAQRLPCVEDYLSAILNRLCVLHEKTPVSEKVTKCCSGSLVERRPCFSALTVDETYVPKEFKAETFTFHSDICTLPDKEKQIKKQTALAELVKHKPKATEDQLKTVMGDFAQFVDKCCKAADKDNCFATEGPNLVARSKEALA
# [2] = target: T2, human albumin (human, UniProt P02768 25-609); test: inferred from reduced antigen complex in human plasma (Gyrolab xP)
# T2 construct: also called albumin in human plasma
# T2 sequence (P02768 25-609 limits assumed): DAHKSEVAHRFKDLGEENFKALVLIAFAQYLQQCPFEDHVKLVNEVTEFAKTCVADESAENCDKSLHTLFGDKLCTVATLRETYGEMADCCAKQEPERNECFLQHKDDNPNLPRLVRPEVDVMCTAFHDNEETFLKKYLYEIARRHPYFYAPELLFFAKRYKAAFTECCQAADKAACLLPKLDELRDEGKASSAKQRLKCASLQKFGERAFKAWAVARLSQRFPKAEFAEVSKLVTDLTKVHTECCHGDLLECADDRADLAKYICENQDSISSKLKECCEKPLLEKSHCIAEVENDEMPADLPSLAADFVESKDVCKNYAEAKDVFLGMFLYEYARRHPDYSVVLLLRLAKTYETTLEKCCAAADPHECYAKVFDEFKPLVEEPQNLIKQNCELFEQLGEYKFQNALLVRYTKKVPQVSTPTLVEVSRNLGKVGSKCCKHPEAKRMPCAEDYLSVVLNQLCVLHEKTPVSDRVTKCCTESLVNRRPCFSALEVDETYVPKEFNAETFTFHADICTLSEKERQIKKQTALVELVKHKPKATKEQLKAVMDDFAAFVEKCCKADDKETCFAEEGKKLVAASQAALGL
# [3] = target: T3, human soluble IL-6R (human, UniProt P08887 20-357, limits assumed); test: SPR (Biacore T200), antibody captured on Protein G, human IL-6R as analyte, 37 degrees C, no albumin
# T3 construct: Soluble form; also called sIL6R; Human IL-6R
# T3 sequence (looked up): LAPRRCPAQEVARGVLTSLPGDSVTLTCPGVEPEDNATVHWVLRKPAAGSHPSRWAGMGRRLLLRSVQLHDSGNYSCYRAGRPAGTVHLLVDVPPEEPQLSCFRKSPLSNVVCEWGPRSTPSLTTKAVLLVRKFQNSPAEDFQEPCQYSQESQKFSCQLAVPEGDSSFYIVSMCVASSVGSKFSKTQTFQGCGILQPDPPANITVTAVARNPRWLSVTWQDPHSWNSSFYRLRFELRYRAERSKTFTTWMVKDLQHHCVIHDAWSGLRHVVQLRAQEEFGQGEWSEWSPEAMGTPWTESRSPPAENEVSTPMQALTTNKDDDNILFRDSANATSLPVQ
# Experimental: Binding activities of the produced albumin switch molecules against human IL-6R were evaluated using Biacore T200 (Cytiva). As the running buffer, 50 mM Na Phosphate (pH 7.4), 150 mM NaCl, 0.05% Tween20 was used, and the evaluation was performed at 37 degrees C. First, Protein G (CALBIOCHEM) was used as a ligand-capturing molecule. Protein G (CALBIOCHEM) was solid-phased on a Series S Sensor Chip CM4 (Cytiva) using an Amine Coupling Kit (Cytiva). Antibody solution prepared using the running buffer was allowed to interact with this CM4 sensor chip to capture approximately 200 RU of the antibody. Human IL-6R used in the present measurement was prepared by an approach described in WO2018097307 (Example 3-2). Human IL-6R was diluted to 0, 100, and 400 nM with the running buffer, and allowed to bind to the captured antibody. The chip was regenerated using 3 M MgCl₂, and measurements were performed by repeatedly capturing the antibodies. Dissociation constant (KD) of each antibody for human IL-6R was calculated using Biacore T200 Evaluation Software 2.0. Specifically, the association rate constant ka (L/mol/s) and the dissociation rate constant kd (1/s) were calculated by global fitting of the sensorgrams obtained by measurement with the 1:1 Langmuir binding model, and the dissociation constant KD (mol/L) was calculated from these values.
# [4] = target: T4, mouse albumin (mouse, UniProt P07724 25-608); test: SPR (Biacore T200), antibody captured by anti-human Fc antibody, mouse albumin as analyte, 25 degrees C
# T4 construct: also called recombinant mouse Albumin; mouse serum albumin
# Experimental: Binding activities of the produced antibodies against mouse albumin were evaluated using Biacore T200 (Cytiva).
# As the running buffer, 50 mM Na Phosphate (pH 7.4), 150 mM NaCl, 0.05% Tween20 was used, and the evaluation was performed at 25 degrees C. First, anti-human Fc antibody (Cytiva) was used as a ligand-capturing molecule. Anti-human Fc antibody (Cytiva) was solid-phased on a Series S Sensor Chip CM4 (Cytiva) using an Amine Coupling Kit (Cytiva). Antibody solution prepared using the running buffer was allowed to interact with this CM4 sensor chip to capture approximately 120 RU of the antibody. Mouse albumin (Bioscience) was diluted to 0 and 300 nM with the running buffer and allowed to bind to the captured antibody. The chip was regenerated using 3 M MgCl₂, and measurements were performed by repeatedly capturing the antibodies. Dissociation constant (KD) of each antibody for mouse albumin was calculated using Biacore T200 Evaluation Software 2.0. Specifically, the association rate constant ka (L/mol/s) and the dissociation rate constant kd (1/s) were calculated by global fitting of the sensorgrams obtained by measurement with the 1:1 Langmuir binding model, and the dissociation constant KD (mol/L) was calculated from these values.
# [5] = target: T3, human soluble IL-6R; test: Gyrolab xP immunoassay of antibody-antigen complex in C57BL/6J mouse plasma (albumin present), 1 nM antibody, 4 nM antigen
# [6] = target: T3, human soluble IL-6R; test: in vivo KD in mouse plasma (albumin present), from total antibody, free and bound sIL6R 5 min after sIL6R; antibody 1 mg/kg IV
# Experimental: (§1) Next, free sIL6R in plasma was measured. The concentration of free sIL6R in plasma was measured on a fully automated ELISA system (Gyrolab xP workstation). First, sIL6R prepared at 23.4, 46.9, 93.8, 188, 375, 750, and 1500 ng/mL using a Protein-Free (PBS) Blocking Buffer (Thermo Scientific) was used as solutions for preparing the calibration curve. Mouse plasma samples were used in the measurements without diluting them. A solution of biotin-labeled H54 diluted to 10 micro g/mL using a Protein-Free (PBS) Blocking Buffer was used as a solution of the sIL6R-capturing molecule. Alexa Fluor (registered trademark) 647-labeled anti-human IL-6R antibody (R&D Systems) diluted to 1 micro g/mL using a Protein-Free (PBS) Blocking Buffer was used as a solution of the human IL-6R-detection molecule. PBS (pH 7.4) containing 0.05% TWEEN was used as a washing solution. The calibration curve solutions, mouse plasma samples, sIL6R-capturing molecule solution, sIL6R-detection molecule solution, and the washing solution were placed onto a PCR plate, and then the PCR plate was sealed with a plate sealer. After the PCR plate and the Bioaffy 200 disc were placed in the Gyrolab xP workstation, measurements were taken. Using the data processed by the Gyros Evaluater 3.6.2.30 software and the calibration curve concentrations, the concentration of free sIL6R in plasma was calculated by logistic regression using the XLfit 5.5.0.5 software.
# Additionally, bound sIL6R in plasma was measured. The concentration of bound sIL6R in plasma was measured on an electrospray ionization mass spectrometer connected to a high-performance liquid chromatography (LC/ESI-MS/MS). First, H54//IC17 and sIL6R were mixed, and solutions for preparing the calibration curve of bound sIL6R were prepared at theoretical plasma concentrations of 0.0468, 0.467, 4.60, and 20.1 nmol/mL. The solutions for preparing the calibration curve and 1 or 2 micro L of a plasma sample were added to 75 or 150 micro g of magnetic beads (Magnosphere MS300/Carboxyl, JSR) to which anti-delta GK antibodies were solid-phased, and this was shaken at 25 degrees C. for one hour.
# [7] = target: T3, human soluble IL-6R; test: in vivo KD in mouse plasma (albumin present), from total antibody, free and bound sIL6R 5 min after sIL6R; antibody 0.2 mg/kg IV
# Experimental: as §1
# Additionally, bound sIL6R in plasma was measured. The concentration of bound sIL6R in plasma was measured on an electrospray ionization mass spectrometer connected to a high-performance liquid chromatography (LC/ESI-MS/MS). First, H54//IC17 and sIL6R were mixed, and solutions for preparing the calibration curve of bound sIL6R were prepared at theoretical plasma concentrations of 0.0468, 0.467, 4.60, and 20.1 nmol/mL. […]
Binder,binding result [1],binding result [2],Kd [3] [nM],koff [3] [s⁻¹],kon [3] [M⁻¹ s⁻¹],Kd [4] [nM],koff [4] [s⁻¹],kon [4] [M⁻¹ s⁻¹],"decrease in the signal derived from the complex, compared to H54//IC17 [5] [%]",Kd [6] [nM],Kd [7] [nM]
B1,binds,binds,3.7,0.000779,210000,19.4,0.00112,57600,95,306,141
B2,binds,binds,2.02,0.000951,471000,10.2,0.000443,43500,–,13.4,2
